# Measured values reported in PMC10437998, “A previously unrecognized superfamily of macro-conotoxins includes an inhibitor of the sensory neuron calcium channel Cav2.3” (PLOS Biology, 2023).
# “And” between values parts separate entries of the source, which are not always exact repeats. Equal values may be shown once.
# B1: Mu8.1 (SLC_Mu8.1), macro-conotoxin from Conus mucronatus (natural protein)
# chain: GENSDNLTHCRLFEFRLCLLECMSLTLDHCYARCTTVITQIHGSDTNRFDCTIFKTCYYRCYVLGKTEDHCWKGTATSVTGDVGDLEFC
# notes: also called Mu8.1_38; Mu8.1_59
# Experiments:
# [1] = target: the molecule itself; assay: SEC; […] (pH 7.8), 150 mM NaCl, 0.5 mL/min; […]
# [2] = target: the molecule itself; assay: […] (pH 7.8), room temperature; 1 mg/mL to 13.2 mg/mL (100 μM to 1.3 mM); […]
protein,measurement,setting,value
B1,stoichiometry N,[1],2
same,stoichiometry N,[2],4 and 6
